Source: the nanobody polyreactivity screen of Harvey et al. (2022)

Experiment: yeast display, Sf9 membrane polyspecificity reagent, FACS + sequencing; frameworks hold sequencing errors
Summary of the method: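 Polyreactivity labels are assigned by the sorting gate from which each nanobody was recovered. The gates were low and high (top ~1%), set on anti-HA fluorescence for expression and streptavidin fluorescence for reagent binding. Before sorting, galactose-induced (36–48 hours) yeast display cells were stained for 1 hour at 4 °C with 10% biotinylated, detergent-solubilized Sf9 membrane reagent.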

| Sequence | polyreactivity (PSR sort gate) |
| --- | --- |
| QVQLVESGGGLVQAGGSLRLSCSASGITYGGNEMGWYRQAPGTESELVAGIDDGGSTNYADSVKGRFTISRDNAKNTVYLQMNSLKPEDTAVYYCAVQGHPPLGILPGFLFDYWGQGTQVTVSS | low polyreactivity |
| QVQLVESGGGLVQAGGSLRLSCSASGLTFYSNAMGWYRQAPGKERELVASISKRGATTYYADSVKGRFTISRDNAKNTVYLQMNSLKPEDTAVYYCAADLRITSYNSWGQGTQVTVSS | low polyreactivity |
| QVQLVESGGGLVQAGGSLRLSCSASGNIFKRYTMGWYRQAPGKERELVAAISGGDSTNYADSVKGRFTISRDNAKKTVYLQMNCLKPEDTAVYYCAGGGLTLWHGYILGYWGQGTQVTVSS | low polyreactivity |
| QVQLVESGGGLVQAGGSLRLSCSASGRIFGAYAMGWYRQAPGKERELVAAITSAGSAHYADYVKGRFTISRDNAKNTVYLQMNSLKPEDTAVYYCAADGIARAYVLFYAYDFLYDYWGQGTQVTVSS | low polyreactivity |
| QVQLVESGGGLVQAGGSLRLSCSASGRIFGYNAMGWSRQAPGKERELVAAISYSGTSTYYADSVKGRFTISRDKAKNTVYLQMNSLKPEDTAVYYCATLAYRWSVAYEYLGQGTQVTVSS | low polyreactivity |
| QVQLVESGGGLVQAGGSLRLSCSASGRIFSVYAMGWYRQAPGKERELVAAITWRGGSTYYADSVKGRFTISRDNAKNTVYLQMNSLKPEDTAVYYCAAVESGYGSKRFYYWGQGTQVTVSS | high polyreactivity |
| QVQLVESGGGLVQAGGSLRLSCSASGRIFYPYAMGWYRQAPGKERELVAAITRRTASTYYADSVKGRFTISRDNAKNTVYLQMNSLKPEDTAVYFCAADSYLKRPYYAGYYYWGQGTQVTVSS | high polyreactivity |
| QVQLVESGGGLVQAGGSLRLSCSASGRTFIVYAMGWYRQAPGKERELVAAITTSVGRTYYADSVKGRFTISRDNAKNTVYLQMNSLKPEDTAVYYCAADRLDGYSEYYYWGQGTQVTVSS | low polyreactivity |
| QVQLVESGGGLVQAGGSLRLSCSASGSIFDAYAMGWYRQAPGKERELVAAITTGGGSTYYADSVKGRFTISRDNAKNTVYLQMNSLKPEDTAVYYCAAEGFATDGWWYYKAYDDWGQGTQVTVSS | low polyreactivity |
| QVQLVESGGGLVQAGGSLRLSCSASGSIFDRYTIGWYRQAPWKERDLVAAITFGGGSTYYADSVKVRFTISRDNAKNTDYLQRNSLKPADTAVYYCAKQRHGKLGHILGYNYWGQGTQVTVSS | low polyreactivity |
| QVQLVESGGGLVQAGGSLRLSCSASGSIFYVYAMGWYRPAPGKERELVAAITSSGTTNYADSVKGRFTISRDNAKNTVYLQMNSLKPEDTAVYYCAADPDSGQVPFDYWVQGTQVTVSS | low polyreactivity |
| QVQLVESGGGLVQAGGSLRLSCSASGSIFYWYDMGWYRLAPGKERELVAAISSGGSTNYADSVKGRFTISRDNAKNTVYLQMISLKPEDTAVYYCNADVPLRYGPIYFRRLDYWGQGTQVTVSS | low polyreactivity |
| QVQLVESGGGLVQAGGSLRLSCSASGSISGYYAMGWYRQAPGKERELVASIRYTGARTYYADSVKGRFTISRDNAKNTVYLQMNSLKPEDTAVYYCAAERSWYTWFASDYDYWGQGTQVTVSS | low polyreactivity |
| QVQLVESGGGLVQAGGSLRLSCSASGSTFYGYAMGWYRQAPGKEWELVAAINWSGGSTYYADSVKGRFTISRDNAKNTVYLQMNSLKPEDTAVYYCNKAWLGSVSRRYYYWGQGTQVTVSS | high polyreactivity |
| QVQLVESGGGLVQAGGSLRLSCSASGSTFYRKTMGWYRQAPGKERELVAAISSGGGTKYADSVKGRFTISRDNAKNTVYLQMNSLKPEDTAVYYCAAVYYTLGYAYYPYIYYYWGQGTQVTVSS | high polyreactivity |
| QVQLVESGGGLVQAGGSLRLSCSASGSTITTYAMGWYRQAPGKERELVAAISTNGGRTCYADSVKGRFTISRDYAKNTVSLQMNSLKPEDTAVYYCAAEYGLYAPGYYYWGQGTQVTVSS | low polyreactivity |
| QVQLVESGGGLVQAGGSLRLSCSASGSTSGKYAMGWYRQAPGKESELVAGITKGGGGTYYADSVKGRFTISRDNAKNTVYLQMNSLKPEDTAVYYCAKYYGSGYYIYDYWGQGTQVTVSS | low polyreactivity |
| QVQLVESGGGLVQAGGSLRLSCSASGSTSYYYAMGWYRQAPGKERELVATISTTGAGTYYADSVKGRFTISRDNAKTTVYLQMNILKPEDTAVFYCAKDGKASRDDAEYYYWGQGTQVTVSS | low polyreactivity |
| QVQLVESGGGLVQAGGSLRLSCSASGSTYYNAMGWYRQAPGKERQLVAAIRFRSGSTYYADSVKGRFTISRDNAKNTVYLQMNSLKPEDTAVYYCAADNKRSWRYAYTYWGQGTQVTVSS | high polyreactivity |
| QVQLVESGGGLVQAGGSLRLSCSASGTILYFYAMGWYRQAQGKERELVAAIDSGGSTDYADSVKGRFTISRYNAKNTVYLQMNSLKPEDTAVYYCAAYPWERYTWWYVYRGHVYWGQGTQVTVSS | low polyreactivity |

| Sequence | polyreactivity (PSR sort gate) |
| --- | --- |
| QVQLVESGGGLVQAGGSLRLSCSASGTTFRYNAMGRYRQAPGKERQLVAAITSGGTTNYADSVKGRFTISRDNAKNTVYLQMNSLKPEDTAVYYCAKKRPGFLRYGSIGEFQYDYWGQGTQVTVSS | low polyreactivity |
| QVQLVESGGGLVQAGGSLRLSCSASGYIFDYNAMGWYIQAPGKERELVAAITFRDGSTYADSVKGRFTISRDNAKNTVYLQMNSLKPEDTAVYYCNRRSQVHSHSKHDYWGQGTQVTVSS | low polyreactivity |
| QVQLVESGGGLVQAGGSLRLSCSASGYIFSSNTMGWYRQAPGTERELVAGISGRTGRTYYADSVKGRFTISRDNAKNTVYLQMNSLKPEDTAVYYCARVPYQGYPRRRLSGYYYWGQGTQVTVSS | high polyreactivity |
| QVQLVESGGGLVQAGGSLRLSCTASGIIFGTYAMGWYRQAPGKERELVAAISSSGVSTYYADSVKGRFTISRDNAKNTVYLQMNSLKPEDTAVYYCAAPLHYGYYYWGQGTQVTVSS | high polyreactivity |
| QVQLVESGGGLVQAGGSLRLSCTASGNTFALYAMGWYRQAPGKERELVARISRRGGSTYYADSVKGRFTISRDNAKNTVYLQMNSLKPEDTAVYYCAKTHSYYPWEVNYWGQGTQVTVSS | high polyreactivity |
| QVQLVESGGGLVQAGGSLRLSCTASGRTLYNYTMGWYRQAPGKERELVAAISRGGGSTYYADSVKGRFTISRDNAKNTVYLQMNSLKQEDTAVYYCATDQTYPYCGGGDYWGQGTQVTVSS | low polyreactivity |
| QVQLVESGGGLVQAGGSLRLSFAASGFTFSAYAMGWYRQAPGKERELVASISGSAGSTYYADTVKGRFTISRYNAKNTVYLHMNSLKPEDTAVYYCNARRRQWQARYDYWGQGTQITVSS | high polyreactivity |
| QVQLVESGGGLVQAGGSLRLSFAASGIIFDLYAMGWYRQAPGKERELVAAITRSVGSTYYADSVKGRFTISRDNAKNTVYLQMNSLKPEDTAVYFCAAVRFAYGYTYDYWGQGTQVTVSS | high polyreactivity |
| QVQLVESGGGLVQAGGSLRLSFAASGIIFGWYAVGWYRQAHGKDRELVAAINIGGSTNYADSVKGRFTISRYNAKNTVYLQMNSLKPEDTADYYCNARTPGYRYGRDYWGQGTQVTVSS | high polyreactivity |
| QVQLVESGGGLVQAGGSLRLSFAASGIIFTRYAMGWYRQAPGKERELVARISWRGSSTSYPDSVKGRFTISRDNAKNTVYLQMNSLKPEDSAVYYCAARYLYLWADYEFGYWVQGTQVTVSS | high polyreactivity |
| QVQLVESGGGLVQAGGSLRLSFAASGITFASNTMGWYRQAPGKERELVAAITRGDNTYYADSVKGRFTISRDNAKNTVYLQMKSLKPEDTAVYYCAKDPHGVEPVPDGYDYWGQGTQVTVSS | low polyreactivity |
| QVQLVESGGGLVQAGGSLRLSFAASGRIFQFYGMGWYRQAPGKEREFVAAITRNGGNTYYADSVKGRYTISRDNAKNTVDLQMNSLKPEDTAVYYCAAANPRDHRGANDYWGQGTQVTVSS | high polyreactivity |
| QVQLVESGGGLVQAGGSLRLSFAASGRNFYRYAMGWYRQAPGKERELVAAISRGGRTNYADSVKGRFTISRDNAKNTGYLQMNSLKPEDTAVYYCAVTNFGALYDYWGQGTQVTVSS | high polyreactivity |
| QVQLVESGGGLVQAGGSLRLSFAASGRTFEKYAMGWYRQAPGKERELVAAISGSGGSTFYADSVKGRFTISRDIAKYTVYLQMISLKPEDSAVYYCAADSRSHPGDYWGQGTQVTVSS | low polyreactivity |
| QVQLVESGGGLVQAGGSLRLSFAASGRTFGGYTMGWYRQAPGKERELVAAITWNGGRTYYADSVKGRFTISRDNAKNTVYLQMNILKPEDTAVYFCAVRIRLRRARLSYDYWGQGTQVTVSS | high polyreactivity |
| QVQLVESGGGLVQAGGSLRLSFAASGSIFASNAMGWYRQAPGKERELVAAISKRGGSTYYVDSVKGRFTISRDNAKNTVYFQMNSLKPEDTAVYYCNTYIRQDAPGQYDYWGQGTQVTVSS | high polyreactivity |
| QVQLVESGGGLVQAGGSLRLSFAASGSIFASNTMGWNSPEPGKERELVAAISSNGGSTYYADSVKGRFTISRDNAKNTFYLQMNSLKPEDTGVYYCNAELSTSELGGMYSWGQGTQVTVSS | low polyreactivity |
| QVQLVESGGGLVQAGGSLRLSFAASGSIFVQYAMRWYRPAPGKERELVAAIDFSDTSTYYADSVKGRFTISRDNAKNTVYLHMNSLKPEDTAVYYCAAEEDSPCRSAIAEEEYWGQGTLVTVSS | low polyreactivity |
| QVQLVESGGGLVQAGGSLRLSFAASGSIFYVYAMGWYRQAPGKERELVAAITWSGGSTYYADSVKGRFTLSRDNAKNTVYLQMNSLKPEDTAVYYCAADEGYDYPYYYWGQGTQVTVSS | high polyreactivity |
| QVQLVESGGGLVQAGGSLRLSFAASGSTFSRYAMGWYRQAPGKERELVAAISSGGGTNYADSVKGRFTISRDNAKNTVYLQMNSLKPEDTSVYYRAAVTVDFLKGYGWWFWQISDFWGQVTQVTVSS | low polyreactivity |
